The results in this text go back to patent US20050048477A1 (published 2005).

B3: Gal80p (other, yeast, UniProt P04387 1-435, looked up)
chain: MDYNKRSSVSTVPNAAPIRVGFVGLNAAKGWAIKTHYPAILQLSSQFQITALYSPKIETSIATIQRLKLSNATAFPTLESFASSSTIDMIVIAIQVASHYEVVMPLLEFSKNNPNLKYLFVEWALACSLDQAESIYKAAAERGVQTIISLQGRKSPYILRAKELISQGYIGDINSIEIAGNGGWYGYERPVKSPKYIYEIGNGVDLVTTTFGHTIDILQYMTSSYFSRINAMVFNNIPEQELIDERGNRLGQRVPKTVPDHLLFQGTLLNGNVPVSCSFKGGKPTKKFTKNLVIDIHGTKGDLKLEGDAGFAEISNLVLYYSGTRANDFPLANGQQAPLDPGYDAGKEIMEVYHLRNYNAIVGNIHRLYQSISDFHFNTKKIPELPSQFVMQGFDFEGFPTLMDALILHRLIESVYKSNMMGSTLNVSNISHYSL
B4: wild type Gal3p (other, yeast, UniProt P13045 1-520, looked up)
chain: MNTNVPIFSSPVRDLPRSFEQKHLAVVDAFFQTYHVKPDFIARSPGRVNLIGEHIDYCDFSVLPLAIDVDMLCAVKILDEKNPSITLTNADPKFAQRKFDLPLDGSYMAIDPSVSEWSNYFKCGLHVAHSYLKKIAPERFNNTPLVGAQIFCQSDIPTGGGLSSAFTCAAALATIRANMGKNFDISKKDLTRITAVAEHYVGVNNGGMDQATSVYGEEDHALYVEFRPKLKATPFKFPQLKNHEISFVIANTLVKSNKFETAPTNYNLRVIEVTVAANALATRYSVALPSHKDNSNSERGNLRDFMDAYYARYENQAQPWNGDIGTGIERLLKMLQLVEESFSRKKSGFTVHEASTALNCSREEFTRDYLTTFPVRFQVLKLYQRAKHVYSESLRVLKALKMMTSATFHTDEDFFTDFGRLMNESQASCDKLYECSCIETNQICSIALANGSFGSRLTGAGWGGCTIHLVPSGANGNVEQVRKALIEKFYNVRYPDLTDEELKDAIIVSKPALGTCLYEQ

Assay [1] addresses B3. The assay can be described thus: membrane-tethered Gal4AD in yeast with a UASGAL-HIS3 reporter, growth without galactose. An excerpt:
FIG. 7. Membrane targeted transcriptional activation domain of Gal4p (Gal4AD; a.a. 758-881) activates HIS3 reporter gene expression. A yeast strain harboring a UASGAL-HIS3 reporter was transformed with Myr-Gal4AD. […] Transformed cells were spotted on synthetic medium plates lacking histidine, tryptophan and uracil and containing 3% glycerol/2% lactic acid as carbon source.

Assay [2] has as its target T1, myristoylated Gal3p (Myr-Gal3p) (yeast, UniProt P13045 1-520, limits assumed, N-myristoylation (acylation) at the N-terminal signal).
T1 construct: also called membrane-associated Gal3p
T1 sequence: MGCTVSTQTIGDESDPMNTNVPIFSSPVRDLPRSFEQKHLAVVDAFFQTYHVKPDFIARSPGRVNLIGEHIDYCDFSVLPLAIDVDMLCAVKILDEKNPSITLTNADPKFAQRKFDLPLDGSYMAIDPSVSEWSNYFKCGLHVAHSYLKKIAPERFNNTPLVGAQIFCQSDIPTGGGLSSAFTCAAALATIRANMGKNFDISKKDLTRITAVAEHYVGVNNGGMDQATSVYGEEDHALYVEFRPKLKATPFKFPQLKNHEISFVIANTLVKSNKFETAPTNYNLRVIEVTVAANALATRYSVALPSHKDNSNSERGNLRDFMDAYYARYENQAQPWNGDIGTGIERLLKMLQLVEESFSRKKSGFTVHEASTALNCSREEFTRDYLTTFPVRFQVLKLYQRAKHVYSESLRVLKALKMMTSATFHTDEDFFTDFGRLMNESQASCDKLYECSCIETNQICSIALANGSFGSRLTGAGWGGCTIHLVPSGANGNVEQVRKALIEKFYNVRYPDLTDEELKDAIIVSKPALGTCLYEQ
The assay can be described thus: fluorescence microscopy of yeast Sc786 co-expressing Gal80-GFP and Myr-Gal3p, galactose induced.

Another assay has as its target Gal4p (yeast, UniProt P04386 1-881). The assay can be described thus: formaldehyde cross-linking and chromatin immunoprecipitation at UASGAL, wild type yeast, un-induced and galactose induced. Here is the method: Fold enrichments are indicated (enrichment). […] FIG. 3C illustrates quantitation of promoter occupancy by Gal4p, Gal80p and Gal3p in un-induced and induced cells. Values are means (±standard deviation) of at least five experiments carried out with two sets of independently prepared chromatin samples.
Chromatin immunoprecipitations were performed as described by Braunstein et al., 1993, Genes Dev. 7: 592-604 and Kuras et al. 1999, Nature 399: 609-613. Briefly, wild type Sc723 cells (Blank et al., 1997, Mol. Cell. Biol. 17: 2566-2575) were grown to early exponential growth phase (as measured by absorbance at 600 nm ˜0.4) in 250 mL yeast extract-peptone medium containing 2% glycerol, 3% lactic acid, and 0.05% glucose (−galactose, un-induced). For galactose-induced cultures, galactose was added to the un-induced cultures to a final concentration of 2% and the cultures were incubated for an additional 20 minutes. Formaldehyde was added to a final concentration of 1%, the cultures were incubated for 20 minutes at room temperature, and glycine was added to a final concentration of 300 mM. All the following steps were carried out at 4° C. Cells were washed twice with TBS (20 mM Tris-HCl, 150 mM NaCl, pH 8.0), resuspended in 1 mL lysis buffer (50 mM Tris-HCl pH 8.0, 10 mM EDTA, 1% SDS, 1 mM PMSF), and disrupted by vortexing with glass beads. […]

The assay “wild type Gal3p” has as its target B4. The experiment in a line: conclusion from Examples 1-3 (localisation, reporter induction, chromatin immunoprecipitation) in yeast with galactose.
Assay [3] deals with B3. The experiment in a line: cell-based or functional assay.

Gal4p, sequence (P04386 whole entry, the tested form may be a part): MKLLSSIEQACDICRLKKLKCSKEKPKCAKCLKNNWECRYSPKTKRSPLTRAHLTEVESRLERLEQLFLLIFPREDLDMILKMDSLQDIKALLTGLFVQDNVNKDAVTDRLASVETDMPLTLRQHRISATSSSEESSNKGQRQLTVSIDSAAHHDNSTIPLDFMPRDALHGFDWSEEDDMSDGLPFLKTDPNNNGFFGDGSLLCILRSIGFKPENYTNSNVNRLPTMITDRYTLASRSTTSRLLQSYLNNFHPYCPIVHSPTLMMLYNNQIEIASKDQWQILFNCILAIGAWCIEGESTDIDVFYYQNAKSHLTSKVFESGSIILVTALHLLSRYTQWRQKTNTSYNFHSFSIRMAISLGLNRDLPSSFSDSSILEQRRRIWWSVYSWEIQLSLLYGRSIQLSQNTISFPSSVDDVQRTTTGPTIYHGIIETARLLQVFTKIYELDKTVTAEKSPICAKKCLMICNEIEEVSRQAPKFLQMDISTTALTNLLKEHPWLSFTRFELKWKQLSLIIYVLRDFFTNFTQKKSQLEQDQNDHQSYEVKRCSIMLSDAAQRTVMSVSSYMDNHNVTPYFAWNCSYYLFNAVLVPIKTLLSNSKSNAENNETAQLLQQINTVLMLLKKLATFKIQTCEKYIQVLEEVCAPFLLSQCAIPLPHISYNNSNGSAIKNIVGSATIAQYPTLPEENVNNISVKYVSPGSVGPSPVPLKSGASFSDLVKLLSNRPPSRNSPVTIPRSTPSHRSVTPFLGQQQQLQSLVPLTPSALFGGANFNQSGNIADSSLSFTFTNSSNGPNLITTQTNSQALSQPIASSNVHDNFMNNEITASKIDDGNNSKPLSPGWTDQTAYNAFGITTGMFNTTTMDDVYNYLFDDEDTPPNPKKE

B1: Myr-Gal4AD (other, yeast)
chain: MGCTVSTQTIGDESDPPLTPSALFGGANFNQSGNIADSSLSFTFTNSSNGPNLITTQTNSQALSQPIASSNVHDNFMNNEITASKIDDGNNSKPLSPGWTDQTAYNAFGITTGMFNTTTMDDVYNYLFDDEDTPPNPKKE
modifications: N-myristoylation at the N-terminal signal
notes: range 758-881; also called membrane-localized Gal4AD
Consider B1, for which, in the assay with Gal80p [1], the binding result was “binds”.

B2: Gal80-GFP (other, yeast, UniProt P04387 1-435, looked up)
chain: MDYNKRSSVSTVPNAAPIRVGFVGLNAAKGWAIKTHYPAILQLSSQFQITALYSPKIETSIATIQRLKLSNATAFPTLESFASSSTIDMIVIAIQVASHYEVVMPLLEFSKNNPNLKYLFVEWALACSLDQAESIYKAAAERGVQTIISLQGRKSPYILRAKELISQGYIGDINSIEIAGNGGWYGYERPVKSPKYIYEIGNGVDLVTTTFGHTIDILQYMTSSYFSRINAMVFNNIPEQELIDERGNRLGQRVPKTVPDHLLFQGTLLNGNVPVSCSFKGGKPTKKFTKNLVIDIHGTKGDLKLEGDAGFAEISNLVLYYSGTRANDFPLANGQQAPLDPGYDAGKEIMEVYHLRNYNAIVGNIHRLYQSISDFHFNTKKIPELPSQFVMQGFDFEGFPTLMDALILHRLIESVYKSNMMGSTLNVSNISHYSL
notes: Order of parts follows the name Gal80-GFP; also called Gal80p fused to green fluorescent protein; not shown: green fluorescent protein (GFP amplified from pYGFP1)
In the case of B2, the binding result in assay [2] is “binds”. Take B3: the binding result with Gal4p and in the assay with wild type Gal3p was “binds” in each case.

As to B4, the “reduction in MEL1 gene expression level” value with Gal80p [3] was 2 fold.
